The source of these data is paper PMC2729490 (Biochemistry, 2009).

Test [1] concerns the target HVR peptide (22 amino acid synthetic peptide representing the hypervariable region of K-Ras4B) (human). The test can be described thus: ITC.
Test [2] has as its target calmodulin (human, Ca2+-loaded) (human) (UniProt P0DP23). Put plainly: NMR titration.
The subject of the next test is CaM. The settings on record: helix 5 independently expressed; ref [22]; cited from earlier work.

With “calmodulin (human, Ca2+-loaded) (from UniProt P0DP23 1-149) (natural protein)”, in test [1], the Kd turned out to be 11.2 µM, the dH was 0.65 kcal/mol and the stoichiometry N came out at 1. In turn, “HVR peptide (22 amino acid synthetic peptide representing the hypervariable region of K-Ras4B)” yielded a Kd in test [2] of 17.5 µM. Consider “α–helix 5 peptide (amino acids 151–166): hydrophobic α–helix 5 peptide (amino acids 151–166) of K-Ras4B, independently expressed, literature (RVEDAFYTLVREIRQY; isoform 2B; UniProt P01116 151-166, looked up, fragment)”, for which the CaM binding entry in the test on CaM was “apparent binding to CaM”.
